Results published in US20240358855A1.
Each block holds one substance with its values, some of them ahead of it.

What was measured:
[1] = molecular target: malondialdehyde modified LDL (UniProt P04114); test: plate binding ELISA on coated MDA-LDL, HEK293 supernatant; fold vs (-) control pCTM395 supernatant
C3d ligand = C3d ligand (UniProt P01024); test: plate binding assay on C3d, purified protein; reference
CRP = molecular target: T1, CRP (UniProt P02741); test: plate binding ELISA on coated CRP, purified protein; reference
T1 sequence (looked up): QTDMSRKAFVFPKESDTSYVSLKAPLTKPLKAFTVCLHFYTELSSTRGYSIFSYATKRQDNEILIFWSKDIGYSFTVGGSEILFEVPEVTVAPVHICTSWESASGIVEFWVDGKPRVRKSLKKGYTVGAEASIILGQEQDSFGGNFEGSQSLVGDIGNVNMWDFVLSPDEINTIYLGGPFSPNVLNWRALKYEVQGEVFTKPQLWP

C3 convertase, C3bBb = C3 convertase, C3bBb (UniProt P01024); test: cell-based or functional assay
C3b protein [2] = molecular target: C3b protein (UniProt P01024); test: plate binding ELISA on coated C3b, purified protein; reference
[3] = molecular target: malondialdehyde modified LDL (UniProt P04114); test: plate binding ELISA on coated MDA-LDL, purified protein; reference
C3b protein [4] = molecular target: C3b protein (UniProt P01024); test: plate binding ELISA on coated C3b, HEK293 supernatant 25 ng/mL; fold vs (-) control pCTM395 supernatant
[5] = molecular target: malondialdehyde modified LDL (UniProt P04114); test: plate binding ELISA on coated MDA-LDL; fold vs (-) control pCTM395 supernatant

CFHT.0 purified recombinant protein (pCTM134), sequence (P08603 other isoform, or with tags, fused parts or gaps limits assumed): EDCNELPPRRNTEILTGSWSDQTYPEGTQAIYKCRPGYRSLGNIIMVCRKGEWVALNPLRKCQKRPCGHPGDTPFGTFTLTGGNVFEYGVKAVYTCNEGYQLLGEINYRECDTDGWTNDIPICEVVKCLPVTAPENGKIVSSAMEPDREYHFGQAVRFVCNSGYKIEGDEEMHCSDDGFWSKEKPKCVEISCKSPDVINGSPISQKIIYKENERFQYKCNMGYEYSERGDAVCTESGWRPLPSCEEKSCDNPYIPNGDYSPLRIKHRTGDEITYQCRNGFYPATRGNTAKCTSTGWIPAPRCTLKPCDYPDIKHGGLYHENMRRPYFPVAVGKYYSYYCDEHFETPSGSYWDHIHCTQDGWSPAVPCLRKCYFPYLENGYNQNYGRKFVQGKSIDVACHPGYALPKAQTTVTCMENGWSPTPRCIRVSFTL
C3b protein, sequence (P01024 23-667 limits assumed, chain 1 of 2): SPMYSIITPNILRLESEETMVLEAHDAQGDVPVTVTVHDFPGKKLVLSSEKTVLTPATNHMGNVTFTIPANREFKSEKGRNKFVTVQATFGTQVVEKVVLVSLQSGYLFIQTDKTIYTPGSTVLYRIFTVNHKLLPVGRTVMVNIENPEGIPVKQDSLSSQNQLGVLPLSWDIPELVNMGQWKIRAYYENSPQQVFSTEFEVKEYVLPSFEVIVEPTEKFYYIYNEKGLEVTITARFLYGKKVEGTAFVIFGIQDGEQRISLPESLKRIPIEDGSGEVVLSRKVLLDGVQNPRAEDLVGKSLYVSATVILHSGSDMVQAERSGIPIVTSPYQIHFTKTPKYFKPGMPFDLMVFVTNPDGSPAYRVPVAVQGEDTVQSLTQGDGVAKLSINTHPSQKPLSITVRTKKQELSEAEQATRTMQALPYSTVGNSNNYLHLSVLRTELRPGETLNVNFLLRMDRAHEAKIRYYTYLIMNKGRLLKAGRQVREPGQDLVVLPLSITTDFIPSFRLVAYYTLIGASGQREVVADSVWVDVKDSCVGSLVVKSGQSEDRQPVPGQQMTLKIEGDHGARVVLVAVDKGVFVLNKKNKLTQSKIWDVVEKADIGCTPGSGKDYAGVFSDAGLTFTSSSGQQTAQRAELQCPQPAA
C3b protein, sequence (P01024 749-1663 limits assumed, chain 2 of 2): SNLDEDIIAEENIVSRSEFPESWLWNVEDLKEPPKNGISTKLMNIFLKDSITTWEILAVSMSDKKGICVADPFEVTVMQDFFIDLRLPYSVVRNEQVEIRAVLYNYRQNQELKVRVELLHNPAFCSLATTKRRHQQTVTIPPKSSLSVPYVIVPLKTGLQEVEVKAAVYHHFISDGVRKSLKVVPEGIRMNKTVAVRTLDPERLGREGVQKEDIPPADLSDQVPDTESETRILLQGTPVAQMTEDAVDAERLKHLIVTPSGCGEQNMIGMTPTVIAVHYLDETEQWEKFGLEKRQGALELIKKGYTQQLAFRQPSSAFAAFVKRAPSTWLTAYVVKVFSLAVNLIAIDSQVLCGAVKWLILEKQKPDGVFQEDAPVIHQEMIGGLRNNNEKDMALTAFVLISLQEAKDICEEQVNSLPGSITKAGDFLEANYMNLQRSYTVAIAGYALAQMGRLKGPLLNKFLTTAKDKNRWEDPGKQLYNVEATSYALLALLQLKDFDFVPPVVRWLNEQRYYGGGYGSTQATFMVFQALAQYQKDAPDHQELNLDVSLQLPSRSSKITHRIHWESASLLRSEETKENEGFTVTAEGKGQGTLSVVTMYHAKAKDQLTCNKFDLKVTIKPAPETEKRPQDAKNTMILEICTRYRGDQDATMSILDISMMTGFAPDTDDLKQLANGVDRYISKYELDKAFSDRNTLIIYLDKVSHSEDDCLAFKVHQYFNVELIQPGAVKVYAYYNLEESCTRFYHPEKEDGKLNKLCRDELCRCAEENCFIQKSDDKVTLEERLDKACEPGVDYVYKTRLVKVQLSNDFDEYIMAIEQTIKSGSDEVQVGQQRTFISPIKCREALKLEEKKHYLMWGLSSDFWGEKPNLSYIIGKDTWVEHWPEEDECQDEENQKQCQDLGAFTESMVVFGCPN
C3d ligand, sequence (P01024 1002-1303 limits assumed): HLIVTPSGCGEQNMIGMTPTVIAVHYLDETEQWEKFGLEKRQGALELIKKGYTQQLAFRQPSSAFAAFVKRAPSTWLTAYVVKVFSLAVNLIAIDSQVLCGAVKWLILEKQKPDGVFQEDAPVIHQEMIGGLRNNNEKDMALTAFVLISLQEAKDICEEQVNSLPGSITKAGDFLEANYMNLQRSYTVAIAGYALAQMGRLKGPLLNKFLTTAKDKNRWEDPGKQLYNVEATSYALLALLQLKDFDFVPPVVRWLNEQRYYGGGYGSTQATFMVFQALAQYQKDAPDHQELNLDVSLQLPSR
C3 convertase, C3bBb, sequence (P01024 23-1663 limits assumed, chain 1 of 2): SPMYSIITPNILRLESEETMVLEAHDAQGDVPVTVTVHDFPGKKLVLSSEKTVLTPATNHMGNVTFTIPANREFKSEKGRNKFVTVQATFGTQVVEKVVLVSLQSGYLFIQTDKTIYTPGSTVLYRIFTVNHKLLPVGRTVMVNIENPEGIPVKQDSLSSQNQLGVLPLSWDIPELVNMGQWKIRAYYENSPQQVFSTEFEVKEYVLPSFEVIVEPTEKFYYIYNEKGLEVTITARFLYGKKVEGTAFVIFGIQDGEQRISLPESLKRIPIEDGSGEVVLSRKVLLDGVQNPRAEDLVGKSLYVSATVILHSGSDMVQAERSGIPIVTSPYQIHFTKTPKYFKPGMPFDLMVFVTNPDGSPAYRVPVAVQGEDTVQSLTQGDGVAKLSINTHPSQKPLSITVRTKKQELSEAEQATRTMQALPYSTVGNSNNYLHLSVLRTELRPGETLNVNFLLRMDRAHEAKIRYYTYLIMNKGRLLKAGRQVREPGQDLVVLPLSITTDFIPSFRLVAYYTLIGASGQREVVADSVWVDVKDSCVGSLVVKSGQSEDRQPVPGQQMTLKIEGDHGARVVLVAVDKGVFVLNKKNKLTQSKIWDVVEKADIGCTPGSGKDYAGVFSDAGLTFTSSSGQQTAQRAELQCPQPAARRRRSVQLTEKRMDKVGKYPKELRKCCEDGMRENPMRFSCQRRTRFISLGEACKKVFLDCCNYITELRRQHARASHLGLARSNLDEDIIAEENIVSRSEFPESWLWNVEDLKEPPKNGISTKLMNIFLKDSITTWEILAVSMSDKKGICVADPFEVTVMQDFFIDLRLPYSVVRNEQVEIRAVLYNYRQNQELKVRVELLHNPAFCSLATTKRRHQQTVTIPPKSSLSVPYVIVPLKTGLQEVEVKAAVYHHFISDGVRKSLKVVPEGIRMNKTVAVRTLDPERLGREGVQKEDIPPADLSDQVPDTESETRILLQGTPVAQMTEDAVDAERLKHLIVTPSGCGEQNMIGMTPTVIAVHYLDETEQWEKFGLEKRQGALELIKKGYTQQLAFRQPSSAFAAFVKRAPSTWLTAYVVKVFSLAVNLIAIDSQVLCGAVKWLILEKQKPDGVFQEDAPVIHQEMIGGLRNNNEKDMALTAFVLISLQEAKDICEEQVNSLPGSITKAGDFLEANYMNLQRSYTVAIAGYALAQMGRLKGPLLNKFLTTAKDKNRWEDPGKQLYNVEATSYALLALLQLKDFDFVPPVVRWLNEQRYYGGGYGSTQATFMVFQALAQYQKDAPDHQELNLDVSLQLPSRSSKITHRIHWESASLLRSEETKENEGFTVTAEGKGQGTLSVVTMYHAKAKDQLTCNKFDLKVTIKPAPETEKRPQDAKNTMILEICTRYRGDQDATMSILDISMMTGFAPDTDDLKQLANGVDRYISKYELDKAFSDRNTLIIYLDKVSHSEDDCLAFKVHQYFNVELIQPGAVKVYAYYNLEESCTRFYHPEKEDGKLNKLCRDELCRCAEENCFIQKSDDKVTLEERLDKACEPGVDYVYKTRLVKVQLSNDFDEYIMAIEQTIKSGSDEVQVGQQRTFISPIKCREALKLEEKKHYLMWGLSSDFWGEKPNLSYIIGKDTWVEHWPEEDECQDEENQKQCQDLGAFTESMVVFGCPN
C3 convertase, C3bBb, sequence (P00751 260-764 limits assumed, chain 2 of 2, further chain): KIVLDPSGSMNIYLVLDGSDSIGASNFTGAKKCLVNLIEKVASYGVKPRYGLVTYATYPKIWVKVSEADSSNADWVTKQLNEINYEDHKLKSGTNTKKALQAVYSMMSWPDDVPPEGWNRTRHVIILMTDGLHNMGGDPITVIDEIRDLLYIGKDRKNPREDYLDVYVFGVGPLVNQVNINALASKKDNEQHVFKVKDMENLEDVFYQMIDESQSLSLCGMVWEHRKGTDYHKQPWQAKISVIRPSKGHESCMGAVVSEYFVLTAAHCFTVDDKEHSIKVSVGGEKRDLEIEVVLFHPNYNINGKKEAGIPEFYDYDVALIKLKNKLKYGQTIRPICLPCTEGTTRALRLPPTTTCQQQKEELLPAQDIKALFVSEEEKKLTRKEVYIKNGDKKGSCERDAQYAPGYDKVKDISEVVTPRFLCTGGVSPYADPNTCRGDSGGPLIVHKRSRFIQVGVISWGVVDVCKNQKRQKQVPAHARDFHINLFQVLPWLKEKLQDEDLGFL
His-CFHT.0 (pCTM447), sequence (P08603 other isoform, or with tags, fused parts or gaps limits assumed): as the sequence (P08603 other isoform, or with tags, fused parts or gaps limits assumed) above
CFHT.0 (pCTM297), sequence (P08603 other isoform, or with tags, fused parts or gaps limits assumed): as above
rCFHT-I62 Protein, sequence (P08603 other isoform, or with tags, fused parts or gaps limits assumed): as above

Fold Activity at Highest Dose (Relative to Control) [1]: 1.5 fold
Substance: CFHT.0 (pCTM297) (from UniProt P08603 19-445)

Fold Activity (Compared to CFHT-I62) (C3d ligand): 1 fold
Fold Activity (Compared to CFHT-I62) (CRP): 1 fold
IC50, decay acceleration activity (DAA) assay (C3 convertase, C3bBb): 1.95 nM
Fold Activity (Compared to CFHT-I62) (C3b protein [2]): 1 fold
Fold Activity (Compared to CFHT-I62) [3]: 1 fold
Substance: CFHT.0 purified recombinant protein (pCTM134) (from UniProt P08603 19-445)

Fold Activity at Highest Dose (Relative to Control) [1]: 1.4 fold
Fold Activity at Highest Dose (Relative to Control) (C3b protein [4]): 1.5 fold
Substance: His-CFHT.0 (pCTM447) (from UniProt P08603 19-445)

Fold Activity at Highest Dose (Relative to Control) [5]: 52 fold
Substance: rCFHT-I62 Protein (from UniProt P08603 19-445)
